PMC7111323 (Cell, 2016)
Like-named read-outs stand apart in the source and are kept apart here.

B1: human NPC2 (natural protein)
chain: EPVQFKDCGSVDGVIKEVNVSPCPTQPCQLSKGQSYSVNVTFTSNIQSKSSKAVVHGILMGVPVPFPIPEPDGCKSGINCPIQKDKTYSYLNKLPVKSEYPSIKLVVEWQLQDDKNQSLFCWEIPVQIVSHL

Tests used:
Experiment in all cases: ITC
[1] = target: B1
[2] = target: T1, full-length human NPC1 (Niemann-Pick C1) (human, UniProt O15118 23-1278)
T1 sequence: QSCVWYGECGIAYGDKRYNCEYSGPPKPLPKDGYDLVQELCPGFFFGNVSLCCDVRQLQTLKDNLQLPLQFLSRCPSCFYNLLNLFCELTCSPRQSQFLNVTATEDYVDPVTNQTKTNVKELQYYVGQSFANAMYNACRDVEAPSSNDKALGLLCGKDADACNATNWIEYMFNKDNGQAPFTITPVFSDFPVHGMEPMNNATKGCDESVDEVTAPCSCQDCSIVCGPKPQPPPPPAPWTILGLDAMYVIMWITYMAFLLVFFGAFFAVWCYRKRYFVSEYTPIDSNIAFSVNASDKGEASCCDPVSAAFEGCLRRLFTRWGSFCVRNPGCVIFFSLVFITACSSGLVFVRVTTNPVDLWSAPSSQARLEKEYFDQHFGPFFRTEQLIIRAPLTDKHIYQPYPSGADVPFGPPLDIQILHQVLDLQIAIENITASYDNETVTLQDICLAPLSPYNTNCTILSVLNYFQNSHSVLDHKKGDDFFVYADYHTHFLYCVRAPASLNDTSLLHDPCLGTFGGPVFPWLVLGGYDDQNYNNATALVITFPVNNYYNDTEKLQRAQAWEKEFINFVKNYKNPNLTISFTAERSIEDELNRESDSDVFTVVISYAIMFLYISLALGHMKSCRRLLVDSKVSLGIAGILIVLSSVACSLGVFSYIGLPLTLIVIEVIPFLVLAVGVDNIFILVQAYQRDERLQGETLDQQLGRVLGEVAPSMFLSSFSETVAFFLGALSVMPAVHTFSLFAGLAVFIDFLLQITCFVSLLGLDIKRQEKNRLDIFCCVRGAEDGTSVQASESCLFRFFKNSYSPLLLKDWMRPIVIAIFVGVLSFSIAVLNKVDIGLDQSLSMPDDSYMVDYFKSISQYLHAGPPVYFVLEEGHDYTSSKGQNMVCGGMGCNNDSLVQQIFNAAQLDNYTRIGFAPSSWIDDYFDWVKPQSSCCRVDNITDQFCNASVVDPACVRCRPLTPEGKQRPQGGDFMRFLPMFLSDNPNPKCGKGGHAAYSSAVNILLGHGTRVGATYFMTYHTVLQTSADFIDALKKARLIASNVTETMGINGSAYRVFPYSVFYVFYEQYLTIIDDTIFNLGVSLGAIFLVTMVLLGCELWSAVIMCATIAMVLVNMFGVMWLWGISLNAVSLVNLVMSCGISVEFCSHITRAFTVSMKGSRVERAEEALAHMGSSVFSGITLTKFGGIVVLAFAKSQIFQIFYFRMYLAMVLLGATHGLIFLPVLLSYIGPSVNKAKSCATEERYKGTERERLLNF

[3] = target: T1, full-length human NPC1 (Niemann-Pick C1); remark: listed apart in the source

| Binder | Kd [1] | Kd [2] | Kd [3] |
| --- | --- | --- | --- |
| human NPC1 ΔLinker (full length with internal deletion of the Pro-rich segment 249…257) (natural protein) QSCVWYGECGIAYGDKRYNCEYSGPPKPLPKDGYDLVQELCPGFFFGNVSLCCDVRQLQTLKDNLQLPLQFLSRCPSCFYNLLNLFCELTCSPRQSQFLNVTATEDYVDPVTNQTKTNVKELQYYVGQSFANAMYNACRDVEAPSSNDKALGLLCGKDADACNATNWIEYMFNKDNGQAPFTITPVFSDFPVHGMEPMNNATKGCDESVDEVTAPCSCQDCSIVCGAPWTILGLDAMYVIMWITYMAFLLVFFGAFFAVWCYRKRYFVSEYTPIDSNIAFSVNASDKGEASCCDPVSAAFEGCLRRLFTRWGSFCVRNPGCVIFFSLVFITACSSGLVFVRVTTNPVDLWSAPSSQARLEKEYFDQHFGPFFRTEQLIIRAPLTDKHIYQPYPSGADVPFGPPLDIQILHQVLDLQIAIENITASYDNETVTLQDICLAPLSPYNTNCTILSVLNYFQNSHSVLDHKKGDDFFVYADYHTHFLYCVRAPASLNDTSLLHDPCLGTFGGPVFPWLVLGGYDDQNYNNATALVITFPVNNYYNDTEKLQRAQAWEKEFINFVKNYKNPNLTISFTAERSIEDELNRESDSDVFTVVISYAIMFLYISLALGHMKSCRRLLVDSKVSLGIAGILIVLSSVACSLGVFSYIGLPLTLIVIEVIPFLVLAVGVDNIFILVQAYQRDERLQGETLDQQLGRVLGEVAPSMFLSSFSETVAFFLGALSVMPAVHTFSLFAGLAVFIDFLLQITCFVSLLGLDIKRQEKNRLDIFCCVRGAEDGTSVQASESCLFRFFKNSYSPLLLKDWMRPIVIAIFVGVLSFSIAVLNKVDIGLDQSLSMPDDSYMVDYFKSISQYLHAGPPVYFVLEEGHDYTSSKGQNMVCGGMGCNNDSLVQQIFNAAQLDNYTRIGFAPSSWIDDYFDWVKPQSSCCRVDNITDQFCNASVVDPACVRCRPLTPEGKQRPQGGDFMRFLPMFLSDNPNPKCGKGGHAAYSSAVNILLGHGTRVGATYFMTYHTVLQTSADFIDALKKARLIASNVTETMGINGSAYRVFPYSVFYVFYEQYLTIIDDTIFNLGVSLGAIFLVTMVLLGCELWSAVIMCATIAMVLVNMFGVMWLWGISLNAVSLVNLVMSCGISVEFCSHITRAFTVSMKGSRVERAEEALAHMGSSVFSGITLTKFGGIVVLAFAKSQIFQIFYFRMYLAMVLLGATHGLIFLPVLLSYIGPSVNKAKSCATEERYKGTERERLLNF | 266 ± 25.5 µM |  |  |
| B1 |  | 15.8 ± 1.2 µM | 217 ± 35.3 µM |
